Measured values from patent US20210106652A1, “Immunogenic Compounds For Treatment Of Fibrosis, Autoimmune Diseases And Inflammation” (ENTEROME S.A., priority 2018, published 2021).

Assays:
[1] = biological target: T1, HLA-A*0201 (Homo sapiens, UniProt P04439, D140Y/D185E/D98H/E176V/E277Q/G131W/G231S/I119V/I121R/I166T/I218V/L300P/L318F/N151K/N90K/P208A/P217A/Q86G/Q94H/R138H/R169H/T345S); experiment: Affinity of the peptide to HLA-A*0201 on T2 cell line (FACS, anti-HLA-A2); format: binding; conditions: for In vitro binding affinity: Example 5, relative affinity = concentration of peptide inducing 20% of HLA-A*0201 expression / that of reference peptide HIV pol 589-597, lower = higher affinity; for Concentration of peptide that induces 20% of HLA-A2 expression: Example 7; for binding to HLA-A*0201 (in words): T2 cells
T1 construct: human tumoral cell T2 which expresses the HLA-A*0201 molecule; endogenous in cells; host or cells: T2 cells (human, TAP1/2 negative)
From the text: The experimental protocol is similar to the one that was validated for peptides presented by the HLA-A*0201 (Tourdot et al., A general strategy to enhance immunogenicity of low-affinity HLA-A2.1-associated peptides: implication in the identification of cryptic tumor epitopes. Eur J Immunol. 2000 December; 30(12):3411-21). Affinity measurement of the peptides is achieved with the human tumoral cell T2 which expresses the HLA-A*0201 molecule, but which is TAP1/2 negative and incapable of presenting endogenous peptides.
(§1) T2 cells (2.10^5 cells per well) are incubated with decreasing concentrations of peptides from 100 μM to 0.1 μM in a AIMV medium supplemented with 100 ng/μl of human β2m at 37° C. for 16 hours. Cells are then washed two times and marked with the anti-HLA-A2 antibody coupled to PE (clone BB7.2, BD Pharmagen).
The analysis is achieved by FACS (Guava Easy Cyte).
(§2) For each peptide concentration, the geometric mean of the labelling associated with the peptide of interest is substracted from background noise and reported as a percentage of the geometric mean of the […] labelling obtained for the reference peptide HIV pol 589-597 at a concentration of 100 μM. The relative affinity is then determined as follows:
relative affinity=concentration of each peptide inducing 20% of expression of HLA-A*0201/concentration of the reference peptide inducing 20% of expression of HLA-A*0201.
The experimental protocol was similar to the one that was validated for peptides presented by the HLA-A*0201 (Tourdot et al., A general strategy to enhance immunogenicity of low-affinity HLA-A2.1-associated peptides: implication in the identification of cryptic tumor epitopes. Eur J Immunol. 2000 December; 30(12):3411-21).
as §1, with “were” for “are”
The analysis was achieved by FACS (Guava Easy Cyte).
as §2, with “was subtracted” for “is substracted”
The experimental protocol, materials and methods correspond to those outlined in Example 3, with the only difference that the above mentioned (poly)peptides were used.
The experimental protocol, materials and methods correspond to those outlined in Example 2, with the only difference that the above mentioned (poly)peptides were used.

[2] = tested on: HHD DR3 mice; experiment: IFN-γ ELISpot immunogenicity and cross-reactivity in HHD DR3 (HLA-A2 transgenic) mice; format: in vivo, mouse; conditions: 100 μg s.c. d0, d14 with helper peptide (DR3) and IFA; challenge with either IL13RA2-L or IL13RA2-H
Experimental: The (poly)peptide of the present invention IL13RA2-L (SEQ ID NO: 279) and the corresponding human reference peptide IL13RA2-H (SEQ ID NO: 263) were tested in distinct groups of male and female HHD DR3 mice expressing human HLA-A2 and HLA-DR3 MHC and lacking the murine H-2 class I and class II MHCs. Groups of 5 mice (male and female) were subcutaneously injected on days 0 and 14 with 100 μg of IL13RA2-L (SEQ ID NO: 279) or IL13RA2-H (SEQ ID NO: 263), 150 μg of helper peptide (DR3) and IFA. On day 21, the mice were euthanized and splenocytes were prepared and stimulated in vitro with IL13RA2-L or the human corresponding peptide IL13RA2-H to assess their capacity to secrete IFN- as assessed by ELISpot. Concanavalin A (ConA) was used as a positive control.

[3] = biological target: T2, HLA-A*0201 molecule expressed on human T2 cells (human); experiment: T2 cell assay; relative affinity against reference peptide HIV pol 589-597
T2 construct: MHC class I molecule on T2 cells; also called HLA-A2

Molecule: 1F9M: tryptophan at position 1 of SEQ ID No 263 substituted by phenylalanine and isoleucine at position 9 substituted by methionine (FLPFGFILM)
- In vitro binding affinity [1]: 2.62

Molecule: 1I9A: tryptophan at position 1 of SEQ ID No 263 substituted by isoleucine and isoleucine at position 9 substituted by alanine (ILPFGFILA)
- In vitro binding affinity [1]: 2.22

Molecule: ALPFGFILV [1A9V]
- In vitro binding affinity [1]: 3.06
- Concentration of peptide that induces 20% of HLA-A2 expression [1]: 36.5 µM

Molecule: CLYTFLIST [IL13RA2-H2]
- binding to HLA-A*0201 (in words) [1]: do not bind to or show much lower affinity

Molecule: FLPFGFILPV [IL13RA2-L]
- immune response (IFN-γ ELISpot, spot forming cells) after immunisation [2]: strongly immunogenic
- Concentration of peptide that induces 20% of HLA-A2 expression [1]: 3.2 µM

Molecule: FLPFGFILV [IL13RA2-B]
- Concentration of peptide that induces 20% of HLA-A2 expression [1]: 2.9 µM
- binding to HLA-A*0201 (in words) [1]: bind strongly

Molecule: WLPFGFILI [IL13RA2-H]
- immune response (IFN-γ ELISpot, spot forming cells) after immunisation [2]: does not induce an immune response
- binding to HLA-A*0201 (in words) [1]: do not bind to or show much lower affinity

Molecule: YLYTFLIST [IL13RA2-B2]
- binding to HLA-A*0201 (in words) [1]: bind strongly

B1: IL13RA2-B (FLPFGFILV, SEQ ID NO: 31) (peptide)
peptide: FLPFGFILV
notes: also called IL13RA2-B pAg; candidate peptide
- In vitro binding affinity [3]: 0.3

B2: peptide 1A9V (SEQ ID NO: 263 with tryptophan 1 to alanine and isoleucine 9 to valine) (peptide)
peptide: ALPFGFILV
notes: Analogue described by Eguchi et al. 2006; also called comparative peptide 1A9V
- In vitro binding affinity [3]: 3.6

B3: IL13RA2-L (SEQ ID NO: 279) (peptide)
peptide: FLPFGFILPV
notes: also called IL13R2A-L
- In vitro binding affinity [3]: 0.3
